# Assay results reported in paper PMC7954794, “Protein context shapes the specificity of SH3 domain-mediated interactions in vivo” (Nature Communications, 2021).
# B1: LSB3 (protein)
# chain: MGINNPIPRSLKSETKKAAKILASFVKPNQVFGADQVIPPDVLKRAKGLAIITILKAGFLFSGRAGSGVIVARLKDGTWSAPSAIAMAGAGAGGMVGIELTDFVFILNTQDAVKSFSEFGTITLGGNVSVSAGPLGRSAEAAASASAGGVAAVFAYSKSKGLFAGVSVEGSAIIERREANRKFYGDNCTAKMILSGRIRPPPAVDPLFRVLESRAFNYRPSNGGRGSFDDDEDDYYDDDDYYNDIPSSFSSTDASSTRPNTRSTRRRAQSGSRYTFDDDDDDDDYGTGYSRNSRLAPTNSGGSGGKLDDPSGASSYYASHRRSGTAQSRARSSRNRWADDEYDDYDDDYESGYRRGNGRDRTKDREVDDLSNRFSKSRISSASTPQTSQGRFTAPTSPSTSSPKAVALYSFAGEESGDLPFRKGDVITILKKSDSQNDWWTGRVNGREGIFPANYVELV
# modifications: left off: DHFR F[3], C-terminal, kept
# B2: LSB1 (protein, UniProt P53281 2-241, looked up)
# LAS seventeen-binding protein …: SASLVNRSLKNIRNELEFLKESNVISGDIFELINSKLPEKWDGNQRSPQNADTEEYVEALYDFEAQQDGDLSLKTGDKIQVLEKISPDWYRGKSNNKIGIFPANYVKPAFTRSASPKSAEAASSSTVSRPSVPPPSYEPAASQYPSQQVSAPYAPPAGYMQAPPPQQQQAPLPYPPPFTNYYQQPQQQYAPPSQQAPVEAQPQQSSGASSAFKSFGSKLGNAAIFGAGSAIGSDIVNSIF
# Test system: Abp1 PPIs
# Test: DHFR-PCA of Abp1 SH3-swapped baits (Fig. 2B-D, S2C, S2F);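 as to Protein-protein interaction distance between Abp1 SH3-swapped baits, to ABP1: Euclidean distance between DHFR-PCA score profiles of the baits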;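 as to Protein-protein interaction distance between Abp1 SH3-swapped baits, to BEM1-2: Euclidean distance between DHFR-PCA score profiles of the baits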;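 as to Protein-protein interaction distance between Abp1 SH3-swapped baits, to BOI1: Euclidean distance between DHFR-PCA score profiles of the baits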;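 as to Protein-protein interaction distance between Abp1 SH3-swapped baits, to BZZ1-1: Euclidean distance between DHFR-PCA score profiles of the baits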
# Assay type: cell-based, Saccharomyces cerevisiae
# Conditions: for Protein-protein interaction distance between Abp1 SH3-swapped baits, to ABP1: Abp1 bait with swapped SH3, distance to bait with ABP1 SH3; for Protein-protein interaction distance between Abp1 SH3-swapped baits, to BBC1: distance to Abp1 bait with BBC1 SH3; for Protein-protein interaction distance between Abp1 SH3-swapped baits, to BEM1-1: distance to Abp1 bait with BEM1-1 SH3; for Protein-protein interaction distance between Abp1 SH3-swapped baits, to BEM1-2: distance to Abp1 bait with BEM1-2 SH3; for Protein-protein interaction distance between Abp1 SH3-swapped baits, to BOI1: distance to Abp1 bait with BOI1 SH3; for Protein-protein interaction distance between Abp1 SH3-swapped baits, to BOI2: distance to Abp1 bait with BOI2 SH3; for Protein-protein interaction distance between Abp1 SH3-swapped baits, to BUD14: distance to Abp1 bait with BUD14 SH3; for Protein-protein interaction distance between Abp1 SH3-swapped baits, to BZZ1-1: distance to Abp1 bait with BZZ1-1 SH3; for Protein-protein interaction distance between Abp1 SH3-swapped baits, to BZZ1-2: distance to Abp1 bait with BZZ1-2 SH3; for Protein-protein interaction distance between Abp1 SH3-swapped baits, to CDC25: distance to Abp1 bait with CDC25 SH3; for Protein-protein interaction distance between Abp1 SH3-swapped baits, to CTTN: distance to Abp1 bait with CTTN SH3; for Protein-protein interaction distance between Abp1 SH3-swapped baits, to CYK3: distance to Abp1 bait with CYK3 SH3; for Protein-protein interaction distance between Abp1 SH3-swapped baits, to DBNL: distance to Abp1 bait with DBNL SH3; for Protein-protein interaction distance between Abp1 SH3-swapped baits, to FUS1: distance to Abp1 bait with FUS1 SH3; for Protein-protein interaction distance between Abp1 SH3-swapped baits, to HCLS1: distance to Abp1 bait with HCLS1 SH3; for Protein-protein interaction distance between Abp1 SH3-swapped baits, to HOF1: distance to Abp1 bait with HOF1 SH3; for Protein-protein interaction distance between Abp1 SH3-swapped baits, to HSE1: distance to Abp1 bait with HSE1 SH3; for Protein-protein interaction distance between Abp1 SH3-swapped baits, to LSB1: distance to Abp1 bait with LSB1 SH3; for Protein-protein interaction distance between Abp1 SH3-swapped baits, to LSB3: distance to Abp1 bait with LSB3 SH3; for Protein-protein interaction distance between Abp1 SH3-swapped baits, to MYO3: distance to Abp1 bait with MYO3 SH3; for Protein-protein interaction distance between Abp1 SH3-swapped baits, to MYO5: distance to Abp1 bait with MYO5 SH3; for Protein-protein interaction distance between Abp1 SH3-swapped baits, to NBP2: distance to Abp1 bait with NBP2 SH3; for Protein-protein interaction distance between Abp1 SH3-swapped baits, to PIN3: distance to Abp1 bait with PIN3 SH3; for Protein-protein interaction distance between Abp1 SH3-swapped baits, to RVS167: distance to Abp1 bait with RVS167 SH3; for Protein-protein interaction distance between Abp1 SH3-swapped baits, to SDC25: distance to Abp1 bait with SDC25 SH3; for Protein-protein interaction distance between Abp1 SH3-swapped baits, to SHO1: distance to Abp1 bait with SHO1 SH3; for Protein-protein interaction distance between Abp1 SH3-swapped baits, to SLA1-1: distance to Abp1 bait with SLA1-1 SH3; for Protein-protein interaction distance between Abp1 SH3-swapped baits, to SLA1-2: distance to Abp1 bait with SLA1-2 SH3; for Protein-protein interaction distance between Abp1 SH3-swapped baits, to SLA1-3: distance to Abp1 bait with SLA1-3 SH3; for Protein-protein interaction distance between Abp1 SH3-swapped baits, to YSC84: distance to Abp1 bait with YSC84 SH3; for PPIs gained by Abp1 - SH3-dependent PPIs gained by Abp1 / SH3-dependent PPIs - SH3-dependent PPIs gained by Abp1 / SH3-dependent PPIs gained by Abp1: number of PPIs, Abp1 SH3-swapped with the listed SH3, Fig2D,S2F; for PPIs gained by Abp1 - SH3-dependent PPIs gained by Abp1 / SH3-dependent PPIs - SH3-dependent PPIs gained by Abp1: difference; for SH3-dependent PPIs gained by Abp1: DHFR-PCA
# Summary of the method: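 Interactions were scored by DHFR protein-fragment complementation. DHFR F[1,2]-tagged Abp1 strains, whose SH3 was swapped for yeast or human ortholog domains, were crossed on YPD at 30 °C for 48 h with a 1536-format array of 575 prey-DHFR F[3] strains and 40 negatives, giving four replicates per pair. PCA selection lasted 4 days after double diploid selection.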
Molecule,"Protein-protein interaction distance between Abp1 SH3-swapped baits, to ABP1 (sheet Fig2C)","Protein-protein interaction distance between Abp1 SH3-swapped baits, to BBC1 (sheet Fig2C)","Protein-protein interaction distance between Abp1 SH3-swapped baits, to BEM1-1 (sheet Fig2C)","Protein-protein interaction distance between Abp1 SH3-swapped baits, to BEM1-2 (sheet Fig2C)","Protein-protein interaction distance between Abp1 SH3-swapped baits, to BOI1 (sheet Fig2C)","Protein-protein interaction distance between Abp1 SH3-swapped baits, to BOI2 (sheet Fig2C)","Protein-protein interaction distance between Abp1 SH3-swapped baits, to BUD14 (sheet Fig2C)","Protein-protein interaction distance between Abp1 SH3-swapped baits, to BZZ1-1 (sheet Fig2C)","Protein-protein interaction distance between Abp1 SH3-swapped baits, to BZZ1-2 (sheet Fig2C)","Protein-protein interaction distance between Abp1 SH3-swapped baits, to CDC25 (sheet Fig2C)","Protein-protein interaction distance between Abp1 SH3-swapped baits, to CTTN (sheet Fig2C)","Protein-protein interaction distance between Abp1 SH3-swapped baits, to CYK3 (sheet Fig2C)","Protein-protein interaction distance between Abp1 SH3-swapped baits, to DBNL (sheet Fig2C)","Protein-protein interaction distance between Abp1 SH3-swapped baits, to FUS1 (sheet Fig2C)","Protein-protein interaction distance between Abp1 SH3-swapped baits, to HCLS1 (sheet Fig2C)","Protein-protein interaction distance between Abp1 SH3-swapped baits, to HOF1 (sheet Fig2C)","Protein-protein interaction distance between Abp1 SH3-swapped baits, to HSE1 (sheet Fig2C)","Protein-protein interaction distance between Abp1 SH3-swapped baits, to LSB1 (sheet Fig2C)","Protein-protein interaction distance between Abp1 SH3-swapped baits, to LSB3 (sheet Fig2C)","Protein-protein interaction distance between Abp1 SH3-swapped baits, to MYO3 (sheet Fig2C)",further results
B1,13.53,13.63,19.15,36.03,16.12,19.6,22.11,10.79,16.06,30.47,16.7,31.13,10.88,23.48,10.8,34.67,12.29,3.731,0.00,9.625,"Protein-protein interaction distance between Abp1 SH3-swapped baits, to MYO5 (sheet Fig2C): 8.063; Protein-protein interaction distance between Abp1 SH3-swapped baits, to NBP2 (sheet Fig2C): 21.33; Protein-protein interaction distance between Abp1 SH3-swapped baits, to PEX13 (distance to Abp1 bait with PEX13 SH3, sheet Fig2C): 7.361; Protein-protein interaction distance between Abp1 SH3-swapped baits, to PIN3 (sheet Fig2C): 5.817; Protein-protein interaction distance between Abp1 SH3-swapped baits, to RVS167 (sheet Fig2C): 7.852; Protein-protein interaction distance between Abp1 SH3-swapped baits, to SDC25 (sheet Fig2C): 36.63; Protein-protein interaction distance between Abp1 SH3-swapped baits, to SHO1 (sheet Fig2C): 11.76; Protein-protein interaction distance between Abp1 SH3-swapped baits, to SLA1-1 (sheet Fig2C): 32.92; Protein-protein interaction distance between Abp1 SH3-swapped baits, to SLA1-2 (sheet Fig2C): 23.82; Protein-protein interaction distance between Abp1 SH3-swapped baits, to SLA1-3 (sheet Fig2C): 5.438; Protein-protein interaction distance between Abp1 SH3-swapped baits, to YSC84 (sheet Fig2C): 3.425; PPIs gained by Abp1 - SH3-dependent PPIs gained by Abp1: 37; SH3-dependent PPIs - SH3-dependent PPIs gained by Abp1: 15; SH3-dependent PPIs gained by Abp1: 4"
B2,13.24,13.47,19.25,36.52,16.11,19.63,22.3,10.43,15.96,30.85,16.72,31.53,10.77,23.45,10.61,35.15,12.02,0.00,3.731,9.135,"Protein-protein interaction distance between Abp1 SH3-swapped baits, to MYO5 (sheet Fig2C): 7.822; Protein-protein interaction distance between Abp1 SH3-swapped baits, to NBP2 (sheet Fig2C): 21.49; Protein-protein interaction distance between Abp1 SH3-swapped baits, to PIN3 (sheet Fig2C): 5.513; Protein-protein interaction distance between Abp1 SH3-swapped baits, to RVS167 (sheet Fig2C): 7.392; Protein-protein interaction distance between Abp1 SH3-swapped baits, to SDC25 (sheet Fig2C): 37.12; Protein-protein interaction distance between Abp1 SH3-swapped baits, to SHO1 (sheet Fig2C): 11.57; Protein-protein interaction distance between Abp1 SH3-swapped baits, to SLA1-1 (sheet Fig2C): 33.34; Protein-protein interaction distance between Abp1 SH3-swapped baits, to SLA1-2 (sheet Fig2C): 24.03; Protein-protein interaction distance between Abp1 SH3-swapped baits, to SLA1-3 (sheet Fig2C): 5.759; Protein-protein interaction distance between Abp1 SH3-swapped baits, to YSC84 (sheet Fig2C): 3.911; PPIs gained by Abp1 - SH3-dependent PPIs gained by Abp1: 41; SH3-dependent PPIs - SH3-dependent PPIs gained by Abp1: 8; SH3-dependent PPIs gained by Abp1: 0"
